Laboratory results reported in PMC5889556.

Assays:
FtsZ (Bacillus subtilis) = FtsZ (Bacillus subtilis) (UniProt P17865); conditions: cited from earlier work
[1] = biological target: ClpXP complex (B. subtilis) (UniProt P50866)

Row | Molecule | Kd (FtsZ (Bacillus subtilis)) [nM] | in vitro ClpXP proteolysis assay with 5 mM ATP: percent of purified His-UgtP degraded after 45 min, by anti-His immunoblot [1] [%] | in vitro ClpXP proteolysis assay without ATP: percent of purified His-UgtP degraded, by anti-His immunoblot [1] [%]
1 | UgtP (from UniProt P54166) | 38 | – | –
2 | His-UgtP (enzyme) MNTNKRVLILTANYGNGHVQVAKTLYEQCVRLGFQHVTVSNLYQESNPIVSEVTQYLYLKSFSIGKQFYRLFYYGVDKIYNKRKFNIYFKMGNKRLGELVDEHQPDIIINTFPMIVVPEYRRRTGRVIPTFNVMTDFCLHKIWVHENVDKYYVATDYVKEKLLEIGTHPSNVKITGIPIRPQFEESMPVGPIYKKYNLSPNKKVLLIMAGAHGVLKNVKELCENLVKDDQVQVVVVCGKNTALKESLSALEAENGDKLKVLGYVERIDELFRITDCMITKPGGITLTEATAIGVPVILYKPVPGQEKENANFFEDRGAAIVVNRHEEILESVTSLLADEDTLHRMKKNIKDLHLANSSEVILEDILKESEMMTAKQKAKVLS | – | 88 | 13
